The results in this text go back to patent US20250320293A1 (REGENECORE BIOTECH, published 2025).

Like-named read-outs stand apart in the source and are kept apart here.

The target in assay [1] is T1, recombinant human TREM2 protein (amino acids 19 to 174) (human, UniProt Q9NZC2 19-174).
T1 chain: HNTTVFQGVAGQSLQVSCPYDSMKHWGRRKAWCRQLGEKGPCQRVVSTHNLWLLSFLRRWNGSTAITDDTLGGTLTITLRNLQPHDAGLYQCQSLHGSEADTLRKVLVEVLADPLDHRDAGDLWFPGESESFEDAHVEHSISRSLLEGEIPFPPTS
Description: ELISA. For orientation: ELISA stands for enzyme-linked immunosorbent assay.

Assay [2] has as its target T2, recombinant human TREM2 protein (amino acids 19 to 174) (human, UniProt Q9NZC2 19-174).
T2 construct: range 19-174
T2 sequence (looked up): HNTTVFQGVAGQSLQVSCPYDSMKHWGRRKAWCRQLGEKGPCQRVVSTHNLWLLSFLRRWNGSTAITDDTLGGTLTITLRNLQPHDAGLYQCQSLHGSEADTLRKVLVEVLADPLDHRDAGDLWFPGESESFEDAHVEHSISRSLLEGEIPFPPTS
Description: ELISA, VHH-hFc titrated on coated TREM2 (1 ug/mL), HRP-goat anti-hIgG.

Assay [3] deals with T2, recombinant human TREM2 protein (amino …). Description: ELISA, crude VHH extract on coated TREM2, anti-HA-HRP; positive if OD450 more than five times the control. The method, then: Crude antibodies were obtained by osmotic bursting. The TREM2 recombinant proteins were diluted in 100 mM NaHCO₃ of pH 8.3, respectively. An ELISA plate was then coated with 100 μg of the proteins and left at 4° C. overnight. 100 μL of the obtained crude antibody extract was transferred to the ELISA plate into which the antigen was added. The plate was incubated at room temperature for 1 h. The unbound antibody was washed away with phosphate buffered saline with Tween (PBST), and 100 μL of Mouse Anti-HA tag Antibody (HRP) (mouse anti-HA horseradish peroxidase-labeled antibody, Thermo Fisher) at 1:2000 dilution was added and incubated at room temperature for 1 h. The unbound antibody was washed away with PBST, and a horseradish peroxidase color development solution was added. After react at 37° C. for 15 min, a stopping solution was added. The absorbance value was read at the wavelength of 450 nm on a microplate reader.
When an optical density (OD) value of a sample well is more than five times greater than that of the control well, the sample well is identified as a positive clone well. The bacteria in the positive clone well were transferred to an LB medium containing 100 μg/mL ampicillin under shaking for plasmid extraction and sequencing.

Assay [4] addresses T1, recombinant human TREM2 protein (amino …). Nature of the assay: ELISA.
The target is the same in assay [5]. Description: ELISA.
Assay [6] shares this target. Nature of the assay: ELISA.

B1: Fc fusion antibody of single-domain antibody 10E12 (Fc fusion)
chain: ESGGGLVQPGGSLRLSCAASGFTFSGYYMSWVRQVPGKARELVAGITRGGNTYYADSVKGRFTISRDNAKNTVYLQMNNLKPEDTTVYYCNARRATTYYWGQGTQVTVSS
notes: also called VHH-hFc; not shown: human IgG1 (vector RJK-V4-hFC1) or IgG4 (vector RJK-V4-3) hinge, CH2, CH3 with 6xHis tag; which of the two is told only
For the molecule B1, in assay [1], the EC50 (usually the concentration at which the effect is half-maximal) was determined as 0.293 nM. Also, the binding result in assay [2] is given as “binds”.

B2: single-domain antibody 10E12 (VHH)
VHH: ESGGGLVQPGGSLRLSCAASGFTFSGYYMSWVRQVPGKARELVAGITRGGNTYYADSVKGRFTISRDNAKNTVYLQMNNLKPEDTTVYYCNARRATTYYWGQGTQVTVSS
notes: Crude extract from E. coli (pMECS vector), detected through an HA tag
B2: the binding result in assay [3] is recorded as “binds”.

B3: 11H2-hFC4 (Fc fusion antibody of single-domain antibody 11H2) (Fc fusion)
chain (part 1 of 2): ESGGGLVQPGGSLRLSCAASGLTFSEYYMSWVRQVPGKARELVAGITRGGNTYYADSVKGRFTISRDNAKNTVYLQMNNLKPEDTTVYYCNARRATTYYWGQGTQVTVSS
Consider B3, for which, in assay [4], the EC50 came to 0.33 nM.

B4: single-domain antibody 11H2 (VHH)
VHH: ESGGGLVQPGGSLRLSCAASGLTFSEYYMSWVRQVPGKARELVAGITRGGNTYYADSVKGRFTISRDNAKNTVYLQMNNLKPEDTTVYYCNARRATTYYWGQGTQVTVSS
notes: as for B2
Consider B4, for which the binding result in assay [3] was “binds”.

B5: 12G12W-hFC1 (Fc fusion antibody of single-domain antibody 12G12W) (Fc fusion)
chain (part 1 of 2): ESGGGLVQAGESLRLSCAASGRTFTNYAMGWFRQAPGKEREFVAGVSWSGSSTDYADSVKGRFTISTDNAKNTVYLQMTSLKPEDTAVYICGVKYFGHSRGGYDYWGQGTQVTVSS
With B5, in assay [5], the EC50 was 0.254 nM.

B6: single-domain antibody 12G12W (VHH)
VHH: ESGGGLVQAGESLRLSCAASGRTFTNYAMGWFRQAPGKEREFVAGVSWSGSSTDYADSVKGRFTISTDNAKNTVYLQMTSLKPEDTAVYICGVKYFGHSRGGYDYWGQGTQVTVSS
notes: as for B2
Take B6: the binding result in assay [3] is reported as “binds”.

B7: single-domain antibody 11D3 (VHH)
VHH: ESGGGLVQAGESLRLSCAASGRTFTDYAMGWFRQAPGKEREFVAGVSWSGSSTDYADSVKGRFTISTDNAKNTVYLQMTSLKPEDTAVYICGVKYFGHSRGGYDYWGQGTQVTVSS
notes: as for B2
Consider B7, for which the binding result in assay [3] is “binds”.

B8: single-domain antibody 10B3 (VHH)
VHH: ESGGGLVQAGESLRLSCAASGRTFTNYAMGWFRQAPGKEREFVAGVSWSGSSTDYADSVKGRFTISTDNAKNTVYLQINNLKPEDTAVYICGVKYFGHSRGGYDYWGQGTQVTVSS
notes: as for B2
As for B8, the binding result in assay [3] is “binds”.

B9: Fc fusion antibody of single-domain antibody 10B3 (Fc fusion)
chain: ESGGGLVQAGESLRLSCAASGRTFTNYAMGWFRQAPGKEREFVAGVSWSGSSTDYADSVKGRFTISTDNAKNTVYLQINNLKPEDTAVYICGVKYFGHSRGGYDYWGQGTQVTVSS
notes: as for B1
B9: the EC50 in assay [1] turned out to be 0.242 nM. In addition, the binding result in assay [2] is “binds”.

B10: Fc fusion antibody of single-domain antibody 11D3 (Fc fusion)
chain: ESGGGLVQAGESLRLSCAASGRTFTDYAMGWFRQAPGKEREFVAGVSWSGSSTDYADSVKGRFTISTDNAKNTVYLQMTSLKPEDTAVYICGVKYFGHSRGGYDYWGQGTQVTVSS
notes: as for B1
For B10, the EC50 in assay [4] turned out to be 0.337 nM. Further, the binding result in assay [2] is “binds”.

B11: Fc fusion antibody of single-domain antibody 12G10 (Fc fusion)
chain: ESGGGLVQPGGSLRLSCAASGFAFSNYVMHWYRQAPEKERELVAIIGSQGGAYTNYAASVKGRFTISRDNAKNMVYLQMNNLKPEDTAVYYCNVVYIGRPNWGQGTQVTVSS
notes: as for B1
B11: the concentration giving a half-maximal response (EC50) in assay [4] amounted to 0.3 nM. Moreover, in assay [2], the binding result was “binds”.

B12: single-domain antibody 12G10 (VHH)
VHH: ESGGGLVQPGGSLRLSCAASGFAFSNYVMHWYRQAPEKERELVAIIGSQGGAYTNYAASVKGRFTISRDNAKNMVYLQMNNLKPEDTAVYYCNVVYIGRPNWGQGTQVTVSS
notes: as for B2
Consider B12, for which, in assay [3], the binding result is “binds”.

B13: Fc fusion antibody of single-domain antibody 2B5 (Fc fusion)
chain: ESGGGLVQPGGSLRLSCAASGFAFSNYVMHWYRQAPEKERELVALIGSQGGAYTNYAGSVKGRFTISRDNTKNMVYLQMNNLKPEDTAVYYCNVVYNGRPNWGQGTQVTVSS
notes: as for B1
Turning to B13, in assay [6], the EC50 came to 0.201 nM. Moreover, the binding result in assay [2] is “binds”.

B14: single-domain antibody 10F10 (VHH)
VHH: ESGGGLVQPGGSLRLSCAASGFAFGNYVMHWYRQAPEKERELVAIIGSQGGTYTNYADSVKGRFTISRDNAKNMVYLQMNNLKPEDTAVYYCNVVYIGRPNWGQGTQVTVSS
notes: as for B2
For B14, the binding result in assay [3] is on record as “binds”.

B15: Fc fusion antibody of single-domain antibody 10F10 (Fc fusion)
chain: ESGGGLVQPGGSLRLSCAASGFAFGNYVMHWYRQAPEKERELVAIIGSQGGTYTNYADSVKGRFTISRDNAKNMVYLQMNNLKPEDTAVYYCNVVYIGRPNWGQGTQVTVSS
notes: as for B1
For the molecule B15, the EC50 in assay [1] was determined as 0.265 nM. Also, the binding result in assay [2] is recorded as “binds”.

B16: single-domain antibody 2B5 (VHH)
VHH: ESGGGLVQPGGSLRLSCAASGFAFSNYVMHWYRQAPEKERELVALIGSQGGAYTNYAGSVKGRFTISRDNTKNMVYLQMNNLKPEDTAVYYCNVVYNGRPNWGQGTQVTVSS
notes: as for B2
Regarding B16, the binding result in assay [3] is given as “binds”.

B17: Fc fusion antibody of single-domain antibody 1H1 (Fc fusion)
chain: ESGGGLVQPGGSLRLSCAASGRTFSSYVMGWFRQAPGKEREFVAAISWSGGITYYGDSVKGRFTISRDNAKNTVFLQMNSLKPEDTAVYYCASGSGSYYRGWEYDYWGQGTQVTVSS
notes: as for B1
Regarding B17, the EC50 in assay [6] was 0.38 nM. The binding result in assay [2] is listed as “binds”.

B18: single-domain antibody 1H1 (VHH)
VHH: ESGGGLVQPGGSLRLSCAASGRTFSSYVMGWFRQAPGKEREFVAAISWSGGITYYGDSVKGRFTISRDNAKNTVFLQMNSLKPEDTAVYYCASGSGSYYRGWEYDYWGQGTQVTVSS
notes: as for B2
As to B18, in assay [3], the binding result is given as “binds”.
